What was measured:
Assay in all cases: cell-based or functional assay
[1] = target: HIV-1 Env of NAC_89.6 (HIV-1)
[2] = target: HIV-1 Env of NAC_92BR020 (HIV-1)
[3] = target: HIV-1 Env of NAC_92TH021 (HIV-1)
[4] = target: HIV-1 Env of NAC_94UG103 (HIV-1)
[5] = target: HIV-1 Env of NAC_ADA (HIV-1)
[6] = target: HIV-1 Env of NAC_WITO.33 (HIV-1)
[7] = target: HIV-1 Env of NIH-011_1056.10.TA11.1826 (HIV-1)
[8] = target: HIV-1 Env of NIH-013_6240.08.TA5.4622 (HIV-1)
[9] = target: HIV-1 Env of NIH-027_CAP45.G3 (HIV-1)
[10] = target: HIV-1 Env of NIH-029_HIV-001428.2.42 (HIV-1)
[11] = target: HIV-1 Env of NIH-036_Ce2010 F5 (HIV-1)
[12] = target: HIV-1 Env of NIH-050_CNE21 (HIV-1)
[13] = target: HIV-1 Env of NIH-055_CNE58 (HIV-1)
[14] = target: HIV-1 Env of NIH-065_191955 A11 (HIV-1)
[15] = target: HIV-1 Env of NIH-068_620345.c01 (HIV-1)
[16] = target: HIV-1 Env of NIH-071_R1166.c01 (HIV-1)
[17] = target: HIV-1 Env of NIH-073_C3347.c11 (HIV-1)
[18] = target: HIV-1 Env of NIH-074_C4118.c09 (HIV-1)
[19] = target: HIV-1 Env of NIH-096_6952.v1.c20 (HIV-1)
[20] = target: HIV-1 Env of NIH-097_6811.v7.c18 (HIV-1)
[21] = target: HIV-1 Env of NIH-101_6540.v4.c1 (HIV-1)
[22] = target: HIV-1 Env of NIH-107_T251.18 (HIV-1)
[23] = target: HIV-1 Env of isolate NIH-085_X2088 c9 (HIV-1)
[24] = target: HIV-1 Env of isolate NIH-087_P1981 C5 3 (HIV-1)
[25] = target: HIV-1 Env of pseudovirus NAC_JRFL (HIV-1)
[26] = target: HIV-1 Env of pseudovirus NAC_SS1196.1 (HIV-1)
[27] = target: HIV-1 Env of pseudovirus NIH-005_TRO.11 (HIV-1)
[28] = target: HIV-1 Env of pseudovirus NIH-007_CAAN5342.A2 (HIV-1)
[29] = target: HIV-1 Env of pseudovirus NIH-010_1054.07.TC4.1499 (HIV-1)
[30] = target: HIV-1 Env of pseudovirus NIH-016_SC05.8C11.2344 (HIV-1)
[31] = target: HIV-1 Env of pseudovirus NIH-017_Du156.12 (HIV-1)
[32] = target: HIV-1 Env of pseudovirus NIH-029_HIV-001428.2.42 (HIV-1)
[33] = target: HIV-1 Env of pseudovirus NIH-039_Ce2060 G9 (HIV-1)
[34] = target: HIV-1 Env of pseudovirus NIH-048_CNE19 (HIV-1)
[35] = target: HIV-1 Env of pseudovirus NIH-052_CNE30 (HIV-1)
[36] = target: HIV-1 Env of pseudovirus NIH-055_CNE58 (HIV-1)
[37] = target: HIV-1 Env of pseudovirus NIH-058_Q23ENV17 (HIV-1)
[38] = target: HIV-1 Env of pseudovirus NIH-070_R2184.c04 (HIV-1)
[39] = target: HIV-1 Env of pseudovirus NIH-071_R1166.c01 (HIV-1)
[40] = target: HIV-1 Env of pseudovirus NIH-078_BJOX015000.11.5 (HIV-1)
[41] = target: HIV-1 Env of pseudovirus NIH-079_BJOX010000.06.2 (HIV-1)
[42] = target: HIV-1 Env of pseudovirus NIH-084_X1254 c3 (clade G) (HIV-1)
[43] = target: HIV-1 Env of pseudovirus NIH-087_P1981 C5 3 (clade G) (HIV-1)
[44] = target: HIV-1 Env of pseudovirus NIH-089_3016.v5.c45 (clade D) (HIV-1)
[45] = target: HIV-1 Env of pseudovirus NIH-099_3301.v1.c24 (HIV-1)
[46] = target: envelope protein of control pseudovirus NAC_AMLV

Substance: VRC01 (antibody)
- IC80 neutralization [1]: 3.3 µg/mL
- IC80 neutralization [2]: 0.23 µg/mL
- IC80 neutralization [3]: 1.31 µg/mL
- IC80 neutralization [4]: 0.752 µg/mL
- IC80 neutralization [5]: 1.31 µg/mL
- IC80 neutralization [6]: 0.228 µg/mL
- IC80 neutralization [7]: 1.48 µg/mL
- IC80 neutralization [8]: 2.62 µg/mL
- IC80 neutralization [9]: 10.1 µg/mL
- IC80 neutralization [10]: 0.068 µg/mL
- IC80 neutralization [11]: 0.625 µg/mL
- IC80 neutralization [12]: 0.848 µg/mL
- IC80 neutralization [13]: 0.331 µg/mL
- IC80 neutralization [14]: 0.467 µg/mL
- IC80 neutralization [15]: > 50 µg/mL
- IC80 neutralization [16]: 1.95 µg/mL
- IC80 neutralization [17]: 0.254 µg/mL
- IC80 neutralization [18]: 0.202 µg/mL
- IC80 neutralization [19]: 0.097 µg/mL
- IC80 neutralization [20]: 0.558 µg/mL
- IC80 neutralization [21]: > 50 µg/mL
- IC80 neutralization [22]: 8.63 µg/mL
- IC80 (µg/ml), TZM-bl pseudovirus neutralization [23]: > 50 µg/mL
- IC80 (µg/ml), TZM-bl pseudovirus neutralization [24]: 0.8 µg/mL
- neutralization IC50 [25]: 0.141 µg/mL
- neutralization IC50 [26]: 0.166 µg/mL
- neutralization IC50 [27]: 0.231 µg/mL
- neutralization IC50 [28]: 0.691 µg/mL
- neutralization IC50 [29]: 0.909 µg/mL
- neutralization IC50 [30]: 0.508 µg/mL
- neutralization IC50 [31]: 0.059 µg/mL
- neutralization IC50 [32]: 0.019 µg/mL
- neutralization IC50 [33]: 0.109 µg/mL
- neutralization IC50 [34]: 0.127 µg/mL
- neutralization IC50 [35]: 0.593 µg/mL
- neutralization IC50 [36]: 0.083 µg/mL
- neutralization IC50 [37]: 0.038 µg/mL
- neutralization IC50 [38]: 0.103 µg/mL
- neutralization IC50 [39]: 0.488 µg/mL
- neutralization IC50 [40]: 0.06 µg/mL
- neutralization IC50 [41]: 1.77 µg/mL
- IC50 (µg/ml), TZM-bl cell neutralization assay, pseudovirus [42]: 0.039 µg/mL
- IC50 (µg/ml), TZM-bl cell neutralization assay, pseudovirus [43]: 0.203 µg/mL
- IC50 (µg/ml), TZM-bl cell neutralization assay, pseudovirus [44]: 0.058 µg/mL
- neutralization IC50 [45]: 0.112 µg/mL
- IC50 (µg/ml), TZM-bl cell neutralization assay, control pseudovirus [46]: > 50 µg/mL
- IC80 (µg/ml), TZM-bl pseudovirus neutralization [46]: > 50 µg/mL

Substance: PGZL1 (antibody)
- IC80 neutralization [1]: > 50 µg/mL
- IC80 neutralization [2]: > 50 µg/mL
- IC80 neutralization [3]: 8.27 µg/mL
- IC80 neutralization [4]: > 50 µg/mL
- IC80 neutralization [5]: 21.8 µg/mL
- IC80 neutralization [6]: 15.1 µg/mL
- IC80 neutralization [7]: 14.9 µg/mL
- IC80 neutralization [8]: > 50 µg/mL
- IC80 neutralization [9]: > 50 µg/mL
- IC80 neutralization [10]: > 50 µg/mL
- IC80 neutralization [11]: > 50 µg/mL
- IC80 neutralization [12]: 17.8 µg/mL
- IC80 neutralization [13]: 14.5 µg/mL
- IC80 neutralization [14]: 8.56 µg/mL
- IC80 neutralization [15]: > 50 µg/mL
- IC80 neutralization [16]: 19.5 µg/mL
- IC80 neutralization [17]: 0.263 µg/mL
- IC80 neutralization [18]: 33.3 µg/mL
- IC80 neutralization [19]: 4.7 µg/mL
- IC80 neutralization [20]: > 50 µg/mL
- IC80 neutralization [21]: > 50 µg/mL
- IC80 neutralization [22]: > 50 µg/mL
- IC80 (µg/ml), TZM-bl pseudovirus neutralization [23]: > 50 µg/mL
- IC80 (µg/ml), TZM-bl pseudovirus neutralization [24]: 5.55 µg/mL
- neutralization IC50 [25]: > 50 µg/mL
- neutralization IC50 [26]: 5.4 µg/mL
- neutralization IC50 [27]: 2.88 µg/mL
- neutralization IC50 [28]: 34 µg/mL
- neutralization IC50 [29]: 5.15 µg/mL
- neutralization IC50 [30]: 5.77 µg/mL
- neutralization IC50 [31]: 0.623 µg/mL
- neutralization IC50 [32]: > 50 µg/mL
- neutralization IC50 [33]: 15 µg/mL
- neutralization IC50 [34]: 3.12 µg/mL
- neutralization IC50 [35]: 40.5 µg/mL
- neutralization IC50 [36]: 3.55 µg/mL
- neutralization IC50 [37]: 16.5 µg/mL
- neutralization IC50 [38]: 12.9 µg/mL
- neutralization IC50 [39]: 4.87 µg/mL
- neutralization IC50 [40]: 2.59 µg/mL
- neutralization IC50 [41]: 1.66 µg/mL
- IC50 (µg/ml), TZM-bl cell neutralization assay, pseudovirus [42]: 45.5 µg/mL
- IC50 (µg/ml), TZM-bl cell neutralization assay, pseudovirus [43]: 1.39 µg/mL
- IC50 (µg/ml), TZM-bl cell neutralization assay, pseudovirus [44]: 2.4 µg/mL
- neutralization IC50 [45]: > 50 µg/mL
- IC50 (µg/ml), TZM-bl cell neutralization assay, control pseudovirus [46]: > 50 µg/mL
- IC80 (µg/ml), TZM-bl pseudovirus neutralization [46]: > 50 µg/mL

Substance: 4E10 (antibody)
- IC80 neutralization [1]: 10.9 µg/mL
- IC80 neutralization [2]: 13.5 µg/mL
- IC80 neutralization [3]: 1.38 µg/mL
- IC80 neutralization [4]: 7.48 µg/mL
- IC80 neutralization [5]: 3.34 µg/mL
- IC80 neutralization [6]: 1.82 µg/mL
- IC80 neutralization [7]: 2.81 µg/mL
- IC80 neutralization [8]: 40.3 µg/mL
- IC80 neutralization [9]: 4.19 µg/mL
- IC80 neutralization [10]: 24.7 µg/mL
- IC80 neutralization [11]: > 50 µg/mL
- IC80 neutralization [12]: 2.15 µg/mL
- IC80 neutralization [13]: 2.24 µg/mL
- IC80 neutralization [14]: 0.157 µg/mL
- IC80 neutralization [15]: 3.06 µg/mL
- IC80 neutralization [16]: 1.77 µg/mL
- IC80 neutralization [17]: 0.137 µg/mL
- IC80 neutralization [18]: 1.17 µg/mL
- IC80 neutralization [19]: 3.5 µg/mL
- IC80 neutralization [20]: 17 µg/mL
- IC80 neutralization [21]: 36.1 µg/mL
- IC80 neutralization [22]: 3.97 µg/mL
- IC80 (µg/ml), TZM-bl pseudovirus neutralization [23]: > 50 µg/mL
- IC80 (µg/ml), TZM-bl pseudovirus neutralization [24]: 0.406 µg/mL
- neutralization IC50 [25]: 17.8 µg/mL
- neutralization IC50 [26]: 0.99 µg/mL
- neutralization IC50 [27]: 0.769 µg/mL
- neutralization IC50 [28]: 2.84 µg/mL
- neutralization IC50 [29]: 1.35 µg/mL
- neutralization IC50 [30]: 0.828 µg/mL
- neutralization IC50 [31]: 0.101 µg/mL
- neutralization IC50 [32]: 5.54 µg/mL
- neutralization IC50 [33]: 1.24 µg/mL
- neutralization IC50 [34]: 0.31 µg/mL
- neutralization IC50 [35]: 4.17 µg/mL
- neutralization IC50 [36]: 0.563 µg/mL
- neutralization IC50 [37]: 1.29 µg/mL
- neutralization IC50 [38]: 0.223 µg/mL
- neutralization IC50 [39]: 0.383 µg/mL
- neutralization IC50 [40]: 0.165 µg/mL
- neutralization IC50 [41]: 0.438 µg/mL
- IC50 (µg/ml), TZM-bl cell neutralization assay, pseudovirus [42]: 2.88 µg/mL
- IC50 (µg/ml), TZM-bl cell neutralization assay, pseudovirus [43]: 0.099 µg/mL
- IC50 (µg/ml), TZM-bl cell neutralization assay, pseudovirus [44]: 0.915 µg/mL
- neutralization IC50 [45]: 20.3 µg/mL
- IC50 (µg/ml), TZM-bl cell neutralization assay, control pseudovirus [46]: > 50 µg/mL
- IC80 (µg/ml), TZM-bl pseudovirus neutralization [46]: > 50 µg/mL

From patent publication US20240124560A1
